Results: patent publication US20210253706A1
pKd: −log10 of the molar value.

Experiments:
[1] = target: cynomolgus ICOS (Macaca fascicularis (cynomolgus)); assay: Octet (BLI), global 1:1 binding model
[2] = target: cynomolgus PD-1 (Macaca fascicularis (cynomolgus)); assay: Octet (BLI), global 1:1 binding model
[3] = target: huICOS (UniProt Q9Y6W8); assay: Octet (BLI), global 1:1 binding model
[4] = target: human PD-1 (human) (UniProt Q15116); assay: Octet (BLI), global 1:1 binding model
[5] = target: human PD-1 expressed on cells (human) (UniProt Q15116); assay: flow cytometry; blocking of 1 µg/mL PD-L1-mFc-Alexa647 binding to HEK 293T cells expressing PD-1 and ICOS
human PD-1 expressed on cells (human), sequence (Q15116 25-288 limits assumed): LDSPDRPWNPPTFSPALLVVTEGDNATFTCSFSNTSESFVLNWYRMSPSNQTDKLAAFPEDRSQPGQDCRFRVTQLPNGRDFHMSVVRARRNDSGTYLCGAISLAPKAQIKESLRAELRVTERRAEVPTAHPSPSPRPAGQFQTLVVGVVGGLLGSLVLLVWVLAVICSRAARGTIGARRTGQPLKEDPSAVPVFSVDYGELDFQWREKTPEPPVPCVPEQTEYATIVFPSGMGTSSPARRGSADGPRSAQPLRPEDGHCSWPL

[6] = target: human ICOS expressed on cells (human) (UniProt Q9Y6W8); assay: flow cytometry; blocking of 0.5 µg/mL ICOSL-mFc-Alex647 binding to HEK 293T cells expressing PD-1 and ICOS
human ICOS expressed on cells (human), sequence (Q9Y6W8 21-199 limits assumed): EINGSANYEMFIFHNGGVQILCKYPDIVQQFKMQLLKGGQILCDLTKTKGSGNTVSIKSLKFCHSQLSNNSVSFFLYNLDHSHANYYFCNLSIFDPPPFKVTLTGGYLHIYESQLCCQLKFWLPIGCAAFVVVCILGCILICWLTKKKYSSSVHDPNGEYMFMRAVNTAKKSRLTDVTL

[7] = target: human PD-1 expressed on cells (human) (UniProt Q15116); assay: flow cytometry; blocking of 0.1 µg/mL soluble PD-L2 (mFc-Alexa647) binding to HEK 293T cells expressing PD-1 and ICOS

cynomolgus ICOS (Macaca fascicularis (cynomolgus)), sequence (Q9Y6W8 21-140 H101R limits assumed): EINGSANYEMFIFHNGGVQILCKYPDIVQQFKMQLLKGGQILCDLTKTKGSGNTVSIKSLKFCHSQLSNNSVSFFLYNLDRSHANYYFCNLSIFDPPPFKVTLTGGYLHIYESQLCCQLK
cynomolgus PD-1 (Macaca fascicularis (cynomolgus)), sequence (Q15116 other isoform, or with tags, fused parts or gaps limits assumed): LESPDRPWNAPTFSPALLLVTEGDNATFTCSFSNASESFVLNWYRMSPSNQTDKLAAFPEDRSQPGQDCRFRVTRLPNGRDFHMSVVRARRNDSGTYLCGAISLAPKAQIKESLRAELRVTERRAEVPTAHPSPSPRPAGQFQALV
human PD-1 (human), sequence (Q15116 25-170 limits assumed): as the sequence (Q15116 other isoform, or with tags, fused parts or gaps limits assumed) above, with E2D, A10P, L19V, A35T, R75Q, A144T counted along it
huICOS, sequence (Q9Y6W8 21-140 limits assumed): as the sequence (Q9Y6W8 21-140 H101R limits assumed) above, with R81H counted along it

XmAb23104 (bispecific antibody)
pKd [1]: 8.59 | pKd [2]: 8.24 | pKd [3]: 8.54 | pKd [4]: 8.55 | EC90 [5]: 7.1 µg/mL | EC10 [6]: 0.02 µg/mL | EC90 [6]: 0.6 µg/mL | EC10 [7]: 0.003 µg/mL | EC90 [7]: 5.3 µg/mL
